To fix the notation:
B1: Ovomucoid: glycoprotein acceptor substrate which contains only N-glycans (protein, UniProt P01005 25-210, looked up)
Ovomucoid: AEVDCSRFPNATDKEGKDVLVCNKDLRPICGTDGVTYTNDCLLCAYSIEFGTNISKEHDGECKETVPMNCSSYANTTSEDGKVMVLCNRAFNPVCGTDGVTYDNECLLCAHKVEQGASVDKRHDGGCRKELAAVSVDCSEYPKPDCTAEDRPLCGSDNKTYGNKCNFCNAVVESNGTLTLSHFGKC
B2: Asialoovomucoid: desialylated ovomucoid prepared at 80° C. for 1 hour in 0.02 N HCl (protein, UniProt P01005 25-210, looked up)
Ovomucoid: B1 Ovomucoid
modifications: desialylated
notes: desialylated ovomucoid prepared at 80° C. for 1 hour in 0.02 N HCl

The first experiment deals with T1, PA-hST8Sia VI (human ST8Sia VI) (Homo sapiens, UniProt P61647, L267F).
T1 construct: amino acids 68-398 in the case of human ST8Sia VI; signal peptide of mouse immunoglobulin IgM (N); made in house; host or cells: COS-7 cells, transient expression of pcDSA-hST8Sia VI; protein recovered from medium on IgG-Sepharose
T1 sequence (P61647 68-398 L267F): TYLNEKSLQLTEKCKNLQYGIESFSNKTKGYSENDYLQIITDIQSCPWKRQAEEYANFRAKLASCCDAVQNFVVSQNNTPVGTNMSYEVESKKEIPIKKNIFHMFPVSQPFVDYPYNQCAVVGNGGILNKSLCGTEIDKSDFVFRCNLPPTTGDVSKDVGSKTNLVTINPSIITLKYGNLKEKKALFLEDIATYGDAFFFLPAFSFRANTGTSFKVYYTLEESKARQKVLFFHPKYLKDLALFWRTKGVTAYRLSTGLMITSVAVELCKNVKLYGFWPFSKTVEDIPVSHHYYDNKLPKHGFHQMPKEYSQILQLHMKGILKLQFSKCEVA
The experiment can be described thus: Sialyltransferase activity of PA-hST8Sia VI toward acceptor substrates. It is filed as biochemical. As to conditions: incorporation with Fetuin taken as 100, substrate 0.5 mg/ml glycolipids, 1 mg/ml glycoproteins, monosaccharides and oligosaccharides. As for the experimental part: (§1) Using each expression vector and lipofectamine (Invitrogen), transient expression was carried out in COS-7 cells (Kojima, N. et al. (1995) FEBS Lett. 360, 1-4). The proteins of the present invention secreted from the cells into which each expression vector had been introduced were named as PA-mST8Sia VI (mouse) and PA-hST8Sia VI (human). PA-mST8Sia VI and PA-hST8Sia VI were adsorbed to IgG-Sepharose (Amersham Pharmacia Biotech), and were then recovered from medium. Sialyltransferase activity was measured as follows according to the method of Lee et al. (Lee, Y.-C. et al. (1999) J. Biol. Chem. 274, 11958-11967). A reaction solution (10 μl) containing 50 mM MES buffer (pH 6.0), 1 mM MgCl2, 1 mM CaCl2, 0.5% Triton CF-54, 100 μM CMP-[^14C]-NeuAc, a glycoconjugate (which was added at 0.5 mg/ml in the case of glycolipids, and at 1 mg/ml in the case of glycoproteins or oligosaccharides), and a PA-mST8Sia VI or PA-hST8Sia VI suspension, was incubated at 37° C. for 3 to 20 hours. Thereafter, in the case of glycolipids, the reaction product was purified with a C-18 column (Sep-Pak Vac 100 mg; Waters) and the purified product was used as a sample, and in the case of oligosaccharides or glycoproteins, the reaction product was directly used as a sample. Thus, the obtained samples were subjected to analysis. In the case of oligosaccharides or glycolipids, the sample was spotted on a silica gel 60 HPTLC plate (Merck), and was then developed with a developing solvent consisting of ethanol:pyridine:n-butanol:water:acetic acid=100:10:10:30:3 (for oligosaccharides), a developing solvent consisting of 1-propanol:ammonia water:water=6:1:2.5 (for oligosaccharides), or a developing solvent consisting of chloroform:methanol: 0.02% CaCl2=55:45:10 (for glycolipids). In the case of glycoproteins, analysis was carried out by SDS-polyacrylamide gel electrophoresis. The obtained radioactivities were visualized with a BAS2000 radio image analyzer (Fuji Film) and then quantified.
Consider “Asialofetuin: asialo glycoprotein acceptor substrate purchased from Sigma”, for which the “Relative rate (%) Human ST8Sia VI” value was found to be 0%.
The same measure, in the same setting: under NeuAcα2,3Galβ1,4Glcβ1-Cer [GM3] stands 1.6%; under “α1-Acid glycoprotein: glycoprotein acceptor substrate purchased from Sigma”, 0%.
Still for that read-out and setting: for “Asialo- α1-Acid glycoprotein: desialylated α1-acid glycoprotein prepared at 80° C. for 1 hour in 0.02 N HCl” the value was 0%; for “Fetuin: glycoprotein acceptor substrate containing both O-glycans and N-glycans, purchased from Sigma”, 100%; for B1, 12.3%.
Turning to B2, the “Relative rate (%) Human ST8Sia VI” value worked out at 0%.

Another experiment deals with T2, PA-mST8Sia VI (mouse ST8Sia VI) (Mus musculus, UniProt Q8K4T1).
T2 construct: amino acids 26-398 in the case of mouse ST8Sia VI; signal peptide of mouse immunoglobulin IgM (N); made in house; host or cells: COS-7 cells, transient expression of pcDSA-mST8Sia VI; protein recovered from medium on IgG-Sepharose
T2 sequence (Q8K4T1 26-398): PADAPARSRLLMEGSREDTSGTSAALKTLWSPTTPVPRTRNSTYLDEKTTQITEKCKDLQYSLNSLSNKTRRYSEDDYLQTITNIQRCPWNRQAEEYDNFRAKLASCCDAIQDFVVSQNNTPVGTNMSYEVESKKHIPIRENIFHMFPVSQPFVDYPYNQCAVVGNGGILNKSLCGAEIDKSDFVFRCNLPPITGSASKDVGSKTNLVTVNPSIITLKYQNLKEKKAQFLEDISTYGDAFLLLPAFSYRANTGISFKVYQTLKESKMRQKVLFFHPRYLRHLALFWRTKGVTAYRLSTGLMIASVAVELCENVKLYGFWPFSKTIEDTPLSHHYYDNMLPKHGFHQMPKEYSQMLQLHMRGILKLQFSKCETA
The experiment can be described thus: Sialyltransferase activity of PA-mST8Sia VI toward acceptor substrates. Type of experiment: biochemical.
Settings: not given
How it is done:
as §1
On to NeuAcα2,3Galβ1,4Glcβ1-Cer [GM3], for which the Km (as a rule, the substrate concentration at which the rate is half of its maximum) stood at 500 µM; the Vmax value amounted to 0.67 pmol/h/ml enzyme solution; the “activity of PA-mST8Sia VI on the substrate (in words)” value was “showed activity”.
For the molecule “Fetuin: glycoprotein acceptor substrate containing both O-glycans and N-glycans, purchased from Sigma”, the “activity of PA-mST8Sia VI on the substrate (in words)” value is on record as “showed activity”.
On the same count and under the same terms, under B1 stands “showed activity”.

The same experiment, now with this note: incorporation with Fetuin taken as 100, substrate 0.5 mg/ml glycolipids, 1 mg/ml glycoproteins, monosaccharides and oligosaccharides.
In the case of “Asialofetuin: asialo glycoprotein acceptor substrate purchased from Sigma”, the “Relative rate (%) Mouse ST8SiaVI” value is recorded as 0%.
Still for that read-out and setting: for NeuAcα2,3Galβ1,4Glcβ1-Cer [GM3] the value was 13.0%.
The same measure, in the same setting: for Galβ1,4Glcβ1-Cer [Lactosylceramide] the value was 0%.
The same measure, in the same setting: under “α1-Acid glycoprotein: glycoprotein acceptor substrate purchased from Sigma” stands 0%.
In the case of “Asialo- α1-Acid glycoprotein: desialylated α1-acid glycoprotein prepared at 80° C. for 1 hour in 0.02 N HCl”, the “Relative rate (%) Mouse ST8SiaVI” value is 0%.
For the molecule “Fetuin: glycoprotein acceptor substrate containing both O-glycans and N-glycans, purchased from Sigma”, the “Relative rate (%) Mouse ST8SiaVI” value was 100%.
As to “Galβ1,3GalNAcβ1,4(NeuAcα2,3)Galβ1,4Glcβ1-Cer [GM1a]”, the “Relative rate (%) Mouse ST8SiaVI” value is 0%.
Still for that read-out and setting: for B1 the value was 6.2%; for B2, 0%.

The record behind these values is patent US20060057696A1, “Sugar chain synthases” (priority 2002, published 2006).
